*1 amine or outer side, *2 acyl side, *3 side chain or, on linkers, in order; H or OH if unused. Primed or numbered codes have the meaning given here. Side-chain parts run from the residue outwards. [ ]: non-standard residue; d: D form. The star is where a group is joined. Thp′ = 4-amino-tetrahydro-2H-pyran-4-yl-acetic acid, O=C(CC1(N[*:1])CCOCC1)[*:2]; C20 diacid = O=C(O)CCCCCCCCCCCCCCCCCCC(=O)*; C18 diacid = O=C(O)CCCCCCCCCCCCCCCCC(=O)*; γGlu = O=C(O)[C@H](CCC(=O)[*:2])N[*:1]; Api = NC1(C(=O)O)CCNCC1; AEEA = NCCOCCOCC(=O)O; Aib = CC(C)(N)C(=O)O
Assays:
[1] = target: human corticotropin-releasing factor 2a (CRF2a receptor) (human), Q13324; test: cell-based or functional assay
CRF1R receptor = target: T1, CRF1R receptor (UniProt P34998 24-415, limits assumed); test: cell-based or functional assay
T1 sequence (looked up): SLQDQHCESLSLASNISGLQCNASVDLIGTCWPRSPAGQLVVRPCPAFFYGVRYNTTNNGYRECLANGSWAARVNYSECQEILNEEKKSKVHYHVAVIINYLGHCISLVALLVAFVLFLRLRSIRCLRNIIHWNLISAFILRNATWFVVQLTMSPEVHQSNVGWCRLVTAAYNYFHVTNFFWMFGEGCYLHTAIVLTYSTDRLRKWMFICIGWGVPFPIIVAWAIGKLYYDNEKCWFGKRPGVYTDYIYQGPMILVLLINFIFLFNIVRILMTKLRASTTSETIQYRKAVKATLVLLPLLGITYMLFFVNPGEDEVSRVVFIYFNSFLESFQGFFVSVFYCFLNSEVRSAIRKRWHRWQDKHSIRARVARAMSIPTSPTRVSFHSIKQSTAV

Sequence of human corticotropin-releasing factor 2a (CRF2a receptor) (human), Q13324 (Q13324 20-411): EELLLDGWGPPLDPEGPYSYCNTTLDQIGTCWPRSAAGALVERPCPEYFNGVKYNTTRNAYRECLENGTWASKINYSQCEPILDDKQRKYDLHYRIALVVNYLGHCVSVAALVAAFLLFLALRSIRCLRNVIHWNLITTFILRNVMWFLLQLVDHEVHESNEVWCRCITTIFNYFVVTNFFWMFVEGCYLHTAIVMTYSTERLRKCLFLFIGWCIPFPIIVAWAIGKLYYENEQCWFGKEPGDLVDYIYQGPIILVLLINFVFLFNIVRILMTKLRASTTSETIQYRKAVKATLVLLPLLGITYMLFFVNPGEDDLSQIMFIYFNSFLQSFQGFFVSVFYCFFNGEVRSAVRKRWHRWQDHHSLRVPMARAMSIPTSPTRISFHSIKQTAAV

Binder | EC50 [nM] (cAMP) [1] | EC50 (CRF1R receptor) | Emax (% I) (CRF1R receptor)
Ac-IVLSLD[dV]PIKLK([γGlu-C20 diacid])KILLEQEKQKKQREQAETN[Aib]QILAQV-NH2 (SMILES CC[C@H](C)[C@H](NC(C)=O)C(=O)N[C@H](C(=O)N[C@@H](CC(C)C)C(=O)N[C@@H](CO)C(=O)N[C@@H](CC(C)C)C(=O)N[C@@H](CC(=O)O)C(=O)N[C@@H](C(=O)N1CCC[C@H]1C(=O)N[C@H](C(=O)N[C@@H](CCCCN)C(=O)N[C@@H](CC(C)C)C(=O)N[C@@H](CCCCNC(=O)CC[C@H](NC(=O)CCCCCCCCCCCCCCCCCCC(=O)O)C(=O)O)C(=O)N[C@@H](CCCCN)C(=O)N[C@H](C(=O)N[C@@H](CC(C)C)C(=O)N[C@@H](CC(C)C)C(=O)N[C@@H](CCC(=O)O)C(=O)N[C@@H](CCC(N)=O)C(=O)N[C@@H](CCC(=O)O)C(=O)N[C@@H](CCCCN)C(=O)N[C@@H](CCC(N)=O)C(=O)N[C@@H](CCCCN)C(=O)N[C@@H](CCCCN)C(=O)N[C@@H](CCC(N)=O)C(=O)N[C@@H](CCCNC(=N)N)C(=O)N[C@@H](CCC(=O)O)C(=O)N[C@@H](CCC(N)=O)C(=O)N[C@@H](C)C(=O)N[C@@H](CCC(=O)O)C(=O)N[C@H](C(=O)N[C@@H](CC(N)=O)C(=O)NC(C)(C)C(=O)N[C@@H](CCC(N)=O)C(=O)N[C@H](C(=O)N[C@@H](CC(C)C)C(=O)N[C@@H](C)C(=O)N[C@@H](CCC(N)=O)C(=O)N[C@H](C(N)=O)C(C)C)[C@@H](C)CC)[C@@H](C)O)[C@@H](C)CC)[C@@H](C)CC)C(C)C)C(C)C) [SEQ ID NO 206] | 0.11 nM | 224000 pM | 42%
Ac-IVLSLD[dV]PIKLK([γGlu-C20 diacid])KILLEQEKQK[Aib]QREQAETN[Aib]QILAQV-NH2 (SMILES CC[C@H](C)[C@H](NC(C)=O)C(=O)N[C@H](C(=O)N[C@@H](CC(C)C)C(=O)N[C@@H](CO)C(=O)N[C@@H](CC(C)C)C(=O)N[C@@H](CC(=O)O)C(=O)N[C@@H](C(=O)N1CCC[C@H]1C(=O)N[C@H](C(=O)N[C@@H](CCCCN)C(=O)N[C@@H](CC(C)C)C(=O)N[C@@H](CCCCNC(=O)CC[C@H](NC(=O)CCCCCCCCCCCCCCCCCCC(=O)O)C(=O)O)C(=O)N[C@@H](CCCCN)C(=O)N[C@H](C(=O)N[C@@H](CC(C)C)C(=O)N[C@@H](CC(C)C)C(=O)N[C@@H](CCC(=O)O)C(=O)N[C@@H](CCC(N)=O)C(=O)N[C@@H](CCC(=O)O)C(=O)N[C@@H](CCCCN)C(=O)N[C@@H](CCC(N)=O)C(=O)N[C@@H](CCCCN)C(=O)NC(C)(C)C(=O)N[C@@H](CCC(N)=O)C(=O)N[C@@H](CCCNC(=N)N)C(=O)N[C@@H](CCC(=O)O)C(=O)N[C@@H](CCC(N)=O)C(=O)N[C@@H](C)C(=O)N[C@@H](CCC(=O)O)C(=O)N[C@H](C(=O)N[C@@H](CC(N)=O)C(=O)NC(C)(C)C(=O)N[C@@H](CCC(N)=O)C(=O)N[C@H](C(=O)N[C@@H](CC(C)C)C(=O)N[C@@H](C)C(=O)N[C@@H](CCC(N)=O)C(=O)N[C@H](C(N)=O)C(C)C)[C@@H](C)CC)[C@@H](C)O)[C@@H](C)CC)[C@@H](C)CC)C(C)C)C(C)C) [SEQ ID NO 209] | 0.22 nM |  | 21%
Ac-IVLSLD[dV]PIKLK([γGlu-C20 diacid])KILLEQEKQK[Aib]QREQAETN[Api]QILAQV-NH2 (SMILES CC[C@H](C)[C@H](NC(C)=O)C(=O)N[C@H](C(=O)N[C@@H](CC(C)C)C(=O)N[C@@H](CO)C(=O)N[C@@H](CC(C)C)C(=O)N[C@@H](CC(=O)O)C(=O)N[C@@H](C(=O)N1CCC[C@H]1C(=O)N[C@H](C(=O)N[C@@H](CCCCN)C(=O)N[C@@H](CC(C)C)C(=O)N[C@@H](CCCCNC(=O)CC[C@H](NC(=O)CCCCCCCCCCCCCCCCCCC(=O)O)C(=O)O)C(=O)N[C@@H](CCCCN)C(=O)N[C@H](C(=O)N[C@@H](CC(C)C)C(=O)N[C@@H](CC(C)C)C(=O)N[C@@H](CCC(=O)O)C(=O)N[C@@H](CCC(N)=O)C(=O)N[C@@H](CCC(=O)O)C(=O)N[C@@H](CCCCN)C(=O)N[C@@H](CCC(N)=O)C(=O)N[C@@H](CCCCN)C(=O)NC(C)(C)C(=O)N[C@@H](CCC(N)=O)C(=O)N[C@@H](CCCNC(=N)N)C(=O)N[C@@H](CCC(=O)O)C(=O)N[C@@H](CCC(N)=O)C(=O)N[C@@H](C)C(=O)N[C@@H](CCC(=O)O)C(=O)N[C@H](C(=O)N[C@@H](CC(N)=O)C(=O)NC1(C(=O)N[C@@H](CCC(N)=O)C(=O)N[C@H](C(=O)N[C@@H](CC(C)C)C(=O)N[C@@H](C)C(=O)N[C@@H](CCC(N)=O)C(=O)N[C@H](C(N)=O)C(C)C)[C@@H](C)CC)CCNCC1)[C@@H](C)O)[C@@H](C)CC)[C@@H](C)CC)C(C)C)C(C)C) [SEQ ID NO 208] | 0.15 nM | 83900 pM | 63%
Ac-IVLSLD[dV]PIKLK([γGlu-C20 diacid])KILLEQEKQKKQREQAETN[Api]QILAQV-NH2 (SMILES CC[C@H](C)[C@H](NC(C)=O)C(=O)N[C@H](C(=O)N[C@@H](CC(C)C)C(=O)N[C@@H](CO)C(=O)N[C@@H](CC(C)C)C(=O)N[C@@H](CC(=O)O)C(=O)N[C@@H](C(=O)N1CCC[C@H]1C(=O)N[C@H](C(=O)N[C@@H](CCCCN)C(=O)N[C@@H](CC(C)C)C(=O)N[C@@H](CCCCNC(=O)CC[C@H](NC(=O)CCCCCCCCCCCCCCCCCCC(=O)O)C(=O)O)C(=O)N[C@@H](CCCCN)C(=O)N[C@H](C(=O)N[C@@H](CC(C)C)C(=O)N[C@@H](CC(C)C)C(=O)N[C@@H](CCC(=O)O)C(=O)N[C@@H](CCC(N)=O)C(=O)N[C@@H](CCC(=O)O)C(=O)N[C@@H](CCCCN)C(=O)N[C@@H](CCC(N)=O)C(=O)N[C@@H](CCCCN)C(=O)N[C@@H](CCCCN)C(=O)N[C@@H](CCC(N)=O)C(=O)N[C@@H](CCCNC(=N)N)C(=O)N[C@@H](CCC(=O)O)C(=O)N[C@@H](CCC(N)=O)C(=O)N[C@@H](C)C(=O)N[C@@H](CCC(=O)O)C(=O)N[C@H](C(=O)N[C@@H](CC(N)=O)C(=O)NC1(C(=O)N[C@@H](CCC(N)=O)C(=O)N[C@H](C(=O)N[C@@H](CC(C)C)C(=O)N[C@@H](C)C(=O)N[C@@H](CCC(N)=O)C(=O)N[C@H](C(N)=O)C(C)C)[C@@H](C)CC)CCNCC1)[C@@H](C)O)[C@@H](C)CC)[C@@H](C)CC)C(C)C)C(C)C) [SEQ ID NO 207] | 0.12 nM | 61400 pM | 65%
Ac-IVLSLD[dV]PIKLK([AEEA-γGlu-γGlu-C18 diacid])KILLEQEKQKKQREQAETN[Aib]QILAQV-NH2 (SMILES CC[C@H](C)[C@H](NC(C)=O)C(=O)N[C@H](C(=O)N[C@@H](CC(C)C)C(=O)N[C@@H](CO)C(=O)N[C@@H](CC(C)C)C(=O)N[C@@H](CC(=O)O)C(=O)N[C@@H](C(=O)N1CCC[C@H]1C(=O)N[C@H](C(=O)N[C@@H](CCCCN)C(=O)N[C@@H](CC(C)C)C(=O)N[C@@H](CCCCNC(=O)COCCOCCNC(=O)CC[C@H](NC(=O)CC[C@H](NC(=O)CCCCCCCCCCCCCCCCC(=O)O)C(=O)O)C(=O)O)C(=O)N[C@@H](CCCCN)C(=O)N[C@H](C(=O)N[C@@H](CC(C)C)C(=O)N[C@@H](CC(C)C)C(=O)N[C@@H](CCC(=O)O)C(=O)N[C@@H](CCC(N)=O)C(=O)N[C@@H](CCC(=O)O)C(=O)N[C@@H](CCCCN)C(=O)N[C@@H](CCC(N)=O)C(=O)N[C@@H](CCCCN)C(=O)N[C@@H](CCCCN)C(=O)N[C@@H](CCC(N)=O)C(=O)N[C@@H](CCCNC(=N)N)C(=O)N[C@@H](CCC(=O)O)C(=O)N[C@@H](CCC(N)=O)C(=O)N[C@@H](C)C(=O)N[C@@H](CCC(=O)O)C(=O)N[C@H](C(=O)N[C@@H](CC(N)=O)C(=O)NC(C)(C)C(=O)N[C@@H](CCC(N)=O)C(=O)N[C@H](C(=O)N[C@@H](CC(C)C)C(=O)N[C@@H](C)C(=O)N[C@@H](CCC(N)=O)C(=O)N[C@H](C(N)=O)C(C)C)[C@@H](C)CC)[C@@H](C)O)[C@@H](C)CC)[C@@H](C)CC)C(C)C)C(C)C) [SEQ ID NO 205] | 1.43 nM |  | 1%
Ac-IVLSLD[dV]PIKLK([γGlu-C20 diacid])KILLEQEKQKKQREQAETN[Thp′]QILAQV-NH2 [SEQ ID NO 210] | 0.21 nM | > 250000 pM | 35%

Reference: US20260001928A1 (CORTERIA PHARMACEUTICALS, priority 2022, published 2026)
